# Laboratory results reported in article PMC4687910, “Thermostabilization of the Human Serotonin Transporter in an Antidepressant-Bound Conformation” (PLoS ONE, 2015).
# System: T1, NCCc1c[nH]c2ccc(O)cc12
# T1 construct: wild-type hSERT expressed in HEK293S cells
# Assay: cells, lysate or membranes
# Type: cell-based, Homo sapiens
# Settings: Na+ and Cl-
substance,measurement,value
human serotonin transporter (hSERT) (Homo sapiens),Km,3.4 µM
